Reference: publication PMC3129650 (Journal of immunology (Baltimore, Md. : 1950), 2011)

Biological target: T1, Native purified human beta2-glycoprotein I (β2GPI) (human, UniProt P02749 20-345)
T1 sequence (looked up): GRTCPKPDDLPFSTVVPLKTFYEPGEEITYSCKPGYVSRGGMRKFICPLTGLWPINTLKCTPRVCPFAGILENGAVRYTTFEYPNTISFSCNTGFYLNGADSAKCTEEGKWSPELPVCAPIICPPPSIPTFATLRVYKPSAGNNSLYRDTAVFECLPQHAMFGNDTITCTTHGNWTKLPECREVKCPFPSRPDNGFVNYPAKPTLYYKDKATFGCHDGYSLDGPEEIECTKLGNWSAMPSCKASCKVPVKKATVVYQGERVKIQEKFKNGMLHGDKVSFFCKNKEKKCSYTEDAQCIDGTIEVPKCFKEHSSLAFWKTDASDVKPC
Assay: ELISA

- binding result: binds
B1: MBP-Ro60 aa 82–244 (domain or fragment)
chain: not shown
modifications: biotin (Sulfo-NHS-Biotin)
